The record followed here is patent US20180171024A1 (ADICET BIO, published 2018).

Test [1] concerns the target T1, single-chain recombinant HLA-A2/WT1 126-134 complex (human).
T1 construct: also called scHLA-A2/WT1; MHC-WT1 peptide complex
Description: SPR (ProteOn), IgG captured via anti-mouse IgG, scHLA-A2/WT1 as analyte.
Description: (§1) Immobilization of IgG TCR-like antibody was performed on a GLM (General Layer Medium) chip (Bio-Rad Laboratories, Hercules, Calif., USA) at 25° C. in the vertical orientation and the continuous running buffer was PBST (10 mM Na-phosphate, 150 mM NaCl, and 0.005% Tween 20, pH 7.4). Five channels were activated with 50 μl of a mixture of 0.04 M N-ethyl-N′-(3-dimethylaminopropyl) carbodiimide (EDC) and 0.01 M sulfo-N-hydroxysuccinimide (Sulfo-NHS) at a flow rate of 30 μl/min. The anti-mouse or human IgG/NeutrAvidin was diluted in 10 mM sodium acetate buffer pH 4.5 to a final concentration of 25 μg/ml and 150 μl were injected followed by an injection of 150 μl of 1 M ethanolamine-HCl pH 8.5. The IgG TCRL antibody/purified biotinylated single-chain recombinant HLA-A2/Tyrosinase/WT1/MAGE-A4/MAGE-A9/PAP complex ligand was diluted in PBST to 5-10 μg/ml and 90 μl were injected in the vertical orientation with a flow rate of 30 μl/min. The sixth channel remained empty to serve as a reference. […] Running buffer was injected simultaneously in the sixth channel for double referencing to correct for loss of the captured antibodies from the chip sensor surface during the experiment. All binding sensorgrams were collected, processed and analyzed using the integrated ProteOn Manager (Bio-Rad Laboratories, Hercules, USA) software. […]

In test [2] the target is T2, HLA-A2/MAGE-A4 230-239 complex on cells (human).
T2 construct: whole, on cells; also called MAGE-A4 peptide; HLA-A2+/MAGE-A4+ cells
Description: flow cytometry, T2 cells loaded with 10^-4 M peptide.

Test [3] has as its target T3, HLA-A2/MART1(26) on T2 cells (human).
T3 construct: whole, on cells
Description: flow cytometry, peptide-loaded T2 cells (10^-5 M). A general note: A flow cytometer gives signals particle by particle.

Test [4] addresses T1, single-chain recombinant HLA-A2/WT1 …. Description: SPR, B47B6 IgG captured via anti-mouse IgG, analyte scHLA-A2/WT1.
Description: Purified IgGs were immobilized indirectly to the SPR sensor chip with anti-mouse. Analyte was purified recombinant single-chain HLA-A2/WT1 complexes generated by in vitro refolding of E. coli expressed scHLA-A2 complexes.
Immobilization of IgG TCR-like antibody was performed on a GLM (General Layer Medium) chip (Bio-Rad Laboratories, Hercules, Calif., USA) at 25° C. in the vertical orientation and the continuous running buffer was PBST (10 mM Na-phosphate, 150 mM NaCl, and 0.005% Tween 20, pH 7.4). Five channels were activated with 50 μl of a mixture of 0.04 M N-ethyl-N′-(3-dimethylaminopropyl) carbodiimide (EDC) and 0.01 M sulfo-N-hydroxysuccinimide (Sulfo-NHS) at a flow rate of 30 μl/min. The anti-mouse or human IgG/NeutrAvidin was diluted in 10 mM sodium acetate buffer pH 4.5 to a final concentration of 25 μg/ml and 150 μl were injected followed by an injection of 150 μl of 1 M ethanolamine-HCl pH 8.5. The IgG TCRL antibody/purified biotinylated single-chain recombinant HLA-A2/Tyrosinase/WT1/MAGE-A4/MAGE-A9/PAP complex ligand was diluted in PBST to 5-10 μg/ml and 90 μl were injected in the vertical orientation with a flow rate of 30 μl/min. The sixth channel remained empty to serve as a reference. […] All binding sensorgrams were collected, processed and analyzed using the integrated ProteOn Manager (Bio-Rad Laboratories, Hercules, USA) software. […]
The target in test [5] is T2, HLA-A2/MAGE-A4 230-239 complex on cells. Description: flow cytometry, peptide-loaded T2 cells (10^-5 M).
For test [6], the target named is T3, HLA-A2/MART1(26) on T2 cells. In words: flow cytometry, T2 cells loaded with MART1 peptide.
Test [7] deals with T2, HLA-A2/MAGE-A4 230-239 complex on cells. Description: flow cytometry, peptide-loaded T2 cells (10^-5 M). This is another data set of the same source.
Test [8] concerns the target T4, PAP112-A1.
T4 construct: also called PAP A1; HLA-A2/PAP A1 on T2 cells
Description: alanine scan, flow cytometry, peptide-loaded T2 cells (10^-5 M), antibody 10 µg/ml.

Test [9] deals with T5, PAP112-A9 (Homo sapiens).
T5 construct: cell surface;cell surface complex; also called PAP A9; HLA-A2/PAP A9 on T2 cells
Described as above.

Test [10] addresses T6, HLA-A2/MAGE-A4-A4 on T2 cells (human).
T6 construct: whole, on cells
In words: flow cytometry (MFI), T2 cells loaded with Ala-mutated peptide.

Test [11] concerns the target T7, HLA-A2/MAGE-A4-A7 on T2 cells (human).
T7 construct: whole, on cells
Described as above.

Test [12] addresses T8, HLA-A2/MAGE-A4-A2 on T2 cells (human).
T8 construct: whole, on cells
The test is described as above.

For test [13], the target named is T9, HLA-A2/MAGE-A4-A5 on T2 cells (human).
T9 construct: whole, on cells
Described as above.

The target in test [14] is T10, HLA-A2/MAGE-A4-A6 on T2 cells (human).
T10 construct: whole, on cells
Described as above.

In test [15] the target is T11, single-chain recombinant HLA-A2/MAGE-A4 230-239 complex (human).
T11 construct: also called scHLA-A2/MAGE-A4
Description: SPR (ProteOn); text: IgG captured via anti-mouse IgG, scHLA-A2/MAGE-A4 as analyte (FIG. 54 legend: complex on NeutrAvidin, Fab as analyte).

Test [16] deals with T12, MAGE-A4-A8.
T12 construct: also called HLA-A2/MAGE-A4-A8 on T2 cells
Description: alanine scan, flow cytometry, peptide-loaded T2 cells (10^-5 M), antibody 10 µg/ml.
Description: (§2) FIG. 55: Epitope specificity determination by Alanine scanning mutagenesis. The mutant MAGE-A4 peptides with alanine substitutions at positions 1, 2, 3, 4, 5, 6, 7, 8 and 9 were synthesized. […] The native and mutant MAGE-A4 peptides were loaded onto T2 cells APCs at a concentration of 10⁻⁵ M for 12 hrs at 37° C. […] MFI values for cells loaded with mutant and wild type peptides were compared. The relative effect of each Ala substitution was expressed as percentage of the binding to native wild-type peptide.

The target in test [17] is T13, MAGE-A4-A10.
T13 construct: also called HLA-A2/MAGE-A4-A10 on T2 cells
The test is described as above.
Description: as §2

In test [18] the target is T14, MAGE-A4-A1.
T14 construct: also called HLA-A2/MAGE-A4-A1 on T2 cells
The description is as above.
Description: as §2

The target in test [19] is T15, MAGE-A4-A3.
T15 construct: also called HLA-A2/MAGE-A4-A3 on T2 cells
The test is described as above.
Description: as §2

Test [20] concerns the target T16, MAGE-A4-A9.
T16 construct: also called HLA-A2/MAGE-A4-A9 on T2 cells
The test is described as above.
Description: as §2

Test [21] addresses T17, single-chain recombinant HLA-A2/Tyrosinase369-377 complex (human).
T17 construct: also called scHLA-A2/Tyrosinase; HLA-A2/TyrD369-377
In words: SPR, IgG captured by anti-mouse IgG, analyte scHLA-A2/Tyrosinase (EM3-TyrD). (Surface plasmon resonance follows binding to a sensor surface in real time, without labels.)
Description: as §1

The target of test [22] is T17, single-chain recombinant …. Description: SPR (ProteOn), IgG captured via anti-mouse IgG, scHLA-A2/Tyrosinase as analyte; apparent affinity.
Description: as §1

B1: B47B6 TCR-like antibody (IgG) (antibody, V domains shown)
VH: EVQLVESGGGLVKPGGSLKLSCAASGFVFSSYDMSWVRQAQEKRLEWVAYMSSGGGTYYPDTVKGRFTISRDNAKNTLHLQMSSLKSEDTAMYYCARHDEITNFDYWGQGTTLTVSS
VL: DIVLTQSPATLSVSPGDSVSLSCRASQSISNSLHWYQQKSHESPRLLIKYASQSISGIPSRFSGSGSGTDFTLSINSVETEDFGMYFCQQSYSWPLTFGAGSKLELKR
notes: also called WT1 B47B6
B1: the Kd turned out to be 4.4 nM in test [1] and 4.37 nM in test [4]. Also, the figures for the binding result in test [2] and in test [3] were “no binding” and “no binding (tested: 10 µg/ml)”, respectively.

B2: 905-2-D7 TCR-like antibody (IgG) (antibody, V domains shown)
VH: QVQLKESGPGLVAPSQSLSITCTVSGFSLTSYGVHWVRQPPGKGLEWLGVIWAGGTTNYNSALMSRLSISRDNSKSQVFLEMNSLQTDDTAIYYCARDGHFHFDFWGQGTTLTVSS
VL: DIQMTQSPASLSVSVGETVTITCRASDIIYSNLAWYQQKQGKSPQLLVYAATNLAAGVPSRFSGSGSGTQYSLKINSLQSEDFGTYYCQHFWGSSISFGSGTKLEIKR
notes: also called Tyr D7
Take B2: the binding result in [5] and in test [6] was “no binding (tested: 10 µg/ml)” throughout.

B3: D10A3 TCR-like antibody (IgG) (antibody, V domains shown)
VH: EVQLQQFGTELVKPGASVKISCKASGYTFTDYNMDWVKQSHGKSLEWIGDINPNYDTTTYNQKFKGKATLTVDKSSSTAYMELRSLTSEDTAVFYCARRNYGNYVGFDFWGQGTTLTVSS
VL: NIVLTQTPKFLLVSAGDRVSITCKASQRVNNDVAWYQQKPGQSPKLLIYYASNRYTGVPDRFTGSGYGTDFTFTISTVQAEDLAVYFCQQDYSSPFTFGSGTKLEIKR
notes: also called PAP D10A3
Regarding B3, the binding result in [7] is listed as “no binding (tested: 10 µg/ml)”. Further, the “% of PAP112 binding” value in test [8] turned out to be 83%; in test [9], 1%.

B4: C106B9 TCR-like antibody (IgG) (antibody, V domains shown)
VH: QVQLQQSGGEVMKPGASVKLSCKATGYTFTGYWIEWIKQRPGHGLEWIGEILPGSGGTNYNEKFKGKATFTAHTSSNTAYMQLSSLTTEDSAIYYCARDSNSFTYWGQGTLVTVSS
VL: QIVLTQSPAIMSASPGEKVTITCSVSSSVDYIHWFQQKPGTSPKFWIYSTSILASGVPARFSGSGSGTSYSLTISRMEAEDAATYYCQQRSSYPPTFGSGTKLEIKR
notes: also called MAGE-A4 C106B9
Turning to B4, the “percent decrease in binding vs wild-type peptide” value in test [10] is 90%; in test [11], 90%; in [12], 33%; in [13] it was 90%; in [14], 90%. In addition, the Kd in test [15] was 8.8 nM. In addition, the “% of MAGE-A4 binding” value in test [16] worked out at 168%; in test [17], 4%; in test [18] it was 106%; in test [19], 1%; in test [20], 79%.

B5: 906-11-D11 TCR-like antibody (IgG) (antibody, V domains shown)
VH: not shown
VL: DIQMTQSPSSLSASLGGKVTITCKASQDIHNYIAWYQHKPVKGPRLLIHYTSTLQPGTPSRFSGSGSGRDYSFSISNLEPEDIATYYCLQYDNLWTFGGGTKLEIKR
notes: also called Tyr D11
For the molecule B5, the Kd in test [21] worked out at 4.14 nM; in test [22] it was 4.1 nM. Moreover, the binding result in [5] and in [6] was “no binding (tested: 10 µg/ml)” throughout.
